Source: article PMC7577485, “An intrinsic mechanism for coordinated production of the contact-dependent and contact-independent weapon systems in a soil bacterium” (PLoS Pathogens, 2020)
Blank lines part the entries; values can stand above or below the molecule they belong to.

Legend:
[1] = target: T1, GST-Clp (Clp) (Lysobacter enzymogenes, UniProt Q7WZ07); assay: microscale thermophoresis, NT-647-labelled GST-Clp; assay type: binding; conditions: 25 °C; 10 μM labelled protein (130 mM NaHCO3, 50 mM NaCl); no Hcp; protein concentration above Kd
T1 construct: labelled with NT-647-NHS for MST
T1 sequence (Q7WZ07 1-229): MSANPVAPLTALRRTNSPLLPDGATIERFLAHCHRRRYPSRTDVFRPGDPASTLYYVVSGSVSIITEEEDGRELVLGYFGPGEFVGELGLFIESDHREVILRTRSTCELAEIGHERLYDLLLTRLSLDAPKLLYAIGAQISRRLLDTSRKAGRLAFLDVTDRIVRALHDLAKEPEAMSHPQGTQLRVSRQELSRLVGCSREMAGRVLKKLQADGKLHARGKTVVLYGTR

[2] = target: GST-Clp (Lysobacter enzymogenes) (UniProt Q7WZ07); assay: MST; 10 μM NT-647-NHS labelled GST-Clp or GST in label buffer (130 mM NaHCO3, 50 mM NaCl) titrated with unlabelled Hcp-His6 in PBS; Monolith NT.115, 25°C, 80% MST power, 20% LED power
[3] = test system: Clp (Lysobacter enzymogenes OH11); assay: MST; conditions: MST: 0.5 uM FAM-DNA, Clp in PBS, 25 C

Molecule: Nc1nc2c(ncn2[C@@H]2O[C@@H]3COP(=O)(O)O[C@H]4[C@@H](O)[C@H](n5cnc6c(=O)[nH]c(N)nc65)O[C@@H]4COP(=O)(O)O[C@H]3[C@H]2O)c(=O)[nH]1 [c-di-GMP]
Kd [1]: 1500 nM

Kd [2]: 1510 nM
Molecule: Hcp-His6 (natural protein)

Molecule: PA site probe, HSAF operon promoter
Kd [3]: 390 nM
